Laboratory results: publication PMC6152284, “Cloning and Characterization of Two Iridoid Synthase Homologs from Swertia Mussotii” (Molecules : A Journal of Synthetic Chemistry and Natural …, 2017)

B1: SmIS2 (Swertia mussotii) (protein)
chain: MSWWWTGAVAAAREKVYDERPKTSPSVALIIGVTGIVGNSLADILPLSDTPGGPWKVYGVARRPRPAWSEDHPVEYIQLDVYNAKETQSKLSPLTDITHIFWTTWANRPTEAECCQVNGAMLQNVIDAVLPNAPNLSHICIQTGHKHYIGPFETFGKIKPHETPFIEDVPRLDVPNFYYTLEDITLETCKKKEGLTWSVHRPAVIFGFSPYSMMNLIGSLCVYAAICKHENVPFTYPGTKGAWNCYSVASDADLIAEHQIWASVDPYAKNEAYNCSNGDLFKWKSLWKVLAEQFDLEYVEFDENQDYVSLAERMKDKGPVWDEIVKQNKLTPTKLEEVATFWFADVIFSGECMLDSMSKSKEHGFLGFRDTTKSLLSVVGKMKAHKIVP
notes: pET-28a, 6-His tags at N- and C-terminus (~46 kDa); E. coli BL21(DE3), purified
B2: SmIS1 (Swertia mussotii) (protein)
chain: MSWWWKRSVQAQNLPEKNQPNGVAETAGRYESVALVVGVTGIVGSSLAQVLKLPDTPGGPWKVYGVARRPCPAWLAKFHVEYIQCDVSNTEEAKTKLSPLKDVTHIFYVSWIGSEDCETNAVMFKNILYNIIPVAPNLKHISLQTGSKHYFGIFEEGSEAVPHESPYTEDLPRLNIPNFYHDLEDILFEETAKHGLTWCVQRPALIFGFSPCSLMNIVSTLSIYATICKHEKKPLVYPGSKASWNCYVDGADADLAAEHHIWAAVDPKAKNQVFNVKNGDVFKWKNVWKMLADEFEMEMVGYIEGNEQVSMAELMKDKDGVWDEIVKKHKLEDTKLKEIAAFWFADIAFSCVDLVMSVTKSREFGFLGFRDSMKSFKSCIHKMRDFKFIP
notes: pETMALc-H, N-terminal MBP fusion with 10 His (~88 kDa); E. coli BL21(DE3), purified

Columns and labels:
[1] = substrate: NC(=O)C1=CN([C@@H]2O[C@H](COP(=O)(O)OP(=O)(O)OC[C@H]3O[C@@H](n4cnc5c(N)ncnc54)[C@H](OP(=O)(O)O)[C@@H]3O)[C@@H](O)[C@H]2O)C=CC1; assay: purified protein; format: biochemical, Swertia mussotii; conditions: co-substrate 8-oxogeranial, 20 mM MOPS pH 7.0, 40 °C, varied: cofactor
[2] = substrate: C/C(C=O)=C\CC/C(C)=C/C=O; assay: purified protein; format: biochemical, Swertia mussotii; conditions: co-substrate NADPH, 20 mM MOPS pH 7.0, 40 °C, substrate stock contained 8-oxoneral isomer

Row | Protein | Km ([1]; His-tagged) | kcat ([1]; His-tagged) | kcat/Km ([1]; His-tagged) | Km ([2]; His-tagged) | kcat ([2]; His-tagged) | kcat/Km ([2]; His-tagged) | Km ([1]; MBP fusion) | kcat ([1]; MBP fusion) | kcat/Km ([1]; MBP fusion) | Km ([2]; MBP fusion) | kcat ([2]; MBP fusion) | kcat/Km ([2]; MBP fusion)
1 | B1 | 41.83 ± 7.2 µM | 0.026 ± 0.01 s⁻¹ | 628 ± 105 M⁻¹ s⁻¹ | 54.37 ± 4.29 µM | 0.034 ± 0.001 s⁻¹ | 629 ± 75.9 M⁻¹ s⁻¹ | – | – | – | – | – | –
2 | B2 | – | – | – | – | – | – | 77.94 ± 6.03 µM | 0.135 ± 0.01 s⁻¹ | 1732 ± 11.3 M⁻¹ s⁻¹ | 7.29 ± 1.59 µM | 0.11 ± 0.007 s⁻¹ | 15600 ± 4350 M⁻¹ s⁻¹
